Data reported in PMC3386157, “G Protein Activation without a GEF in the Plant Kingdom” (PLoS Genetics, 2012).

Tests used:
Experiment in all cases: SPR; BIAcore 2000; His-tagged AtRGS1 (284-459 aa) immobilised on sensor chip CM5 by amine coupling; AlF4-bound Gα flowed at 6.25-400 nM in running buffer with 20 mM NaF and 100 µM AlCl3; 25°C, 10 µl/min; 10 mM Hepes, 150 mM NaCl, 3 mM EDTA, 0.005% Tween-20, 100 µM GDP, 10 mM MgCl2; 1:1 Langmuir model
Conditions in all cases: both partners purified
[1] = target: T1, His-AtGPA1 (Arabidopsis thaliana, UniProt P18064 1-383)
T1 construct: Arabidopsis thaliana heterotrimeric G protein alpha subunit AtGPA1; also called Arabidopsis thaliana Gα; wild type Arabidopsis Gα subunit; not shown: His6, N-terminal, kept
T1 sequence (looked up): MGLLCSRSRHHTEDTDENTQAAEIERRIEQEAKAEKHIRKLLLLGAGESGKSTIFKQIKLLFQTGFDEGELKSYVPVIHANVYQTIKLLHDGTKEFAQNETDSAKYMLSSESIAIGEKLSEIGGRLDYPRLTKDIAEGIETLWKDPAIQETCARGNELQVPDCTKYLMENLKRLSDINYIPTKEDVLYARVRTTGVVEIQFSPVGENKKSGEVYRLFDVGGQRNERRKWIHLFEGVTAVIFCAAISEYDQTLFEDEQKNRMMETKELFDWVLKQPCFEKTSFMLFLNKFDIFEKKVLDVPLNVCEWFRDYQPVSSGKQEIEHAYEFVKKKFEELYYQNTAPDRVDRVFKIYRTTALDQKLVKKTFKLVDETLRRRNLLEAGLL

[2] = target: T2, AtGPA1-T194N (Arabidopsis thaliana, UniProt P18064 1-383, T194N)
T2 construct: Arabidopsis thaliana heterotrimeric G protein alpha subunit AtGPA1 with T194N (switch I); No tag cleavage is described; also called T194N mutant Arabidopsis Gα subunit
T2 sequence (looked up): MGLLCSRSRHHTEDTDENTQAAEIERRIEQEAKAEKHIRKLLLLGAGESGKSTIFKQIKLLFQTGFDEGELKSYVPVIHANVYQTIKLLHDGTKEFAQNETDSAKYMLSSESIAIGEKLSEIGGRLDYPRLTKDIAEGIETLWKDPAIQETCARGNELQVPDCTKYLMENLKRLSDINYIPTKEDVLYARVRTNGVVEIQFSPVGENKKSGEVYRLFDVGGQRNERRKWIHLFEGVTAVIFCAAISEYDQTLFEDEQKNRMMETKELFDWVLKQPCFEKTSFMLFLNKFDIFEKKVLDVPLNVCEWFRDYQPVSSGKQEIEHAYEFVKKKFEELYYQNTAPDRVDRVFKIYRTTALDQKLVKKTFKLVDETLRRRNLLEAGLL

[3] = target: T3, OsRGA1 (Oryza sativa, UniProt Q0DJ33 1-380)
T3 construct: Oryza sativa heterotrimeric G protein alpha subunit OsRGA1; cDNA synthesized with codon usage optimised for E. coli; No tag cleavage is described; also called rice Gα; wild type rice Gα subunit
T3 sequence (looked up): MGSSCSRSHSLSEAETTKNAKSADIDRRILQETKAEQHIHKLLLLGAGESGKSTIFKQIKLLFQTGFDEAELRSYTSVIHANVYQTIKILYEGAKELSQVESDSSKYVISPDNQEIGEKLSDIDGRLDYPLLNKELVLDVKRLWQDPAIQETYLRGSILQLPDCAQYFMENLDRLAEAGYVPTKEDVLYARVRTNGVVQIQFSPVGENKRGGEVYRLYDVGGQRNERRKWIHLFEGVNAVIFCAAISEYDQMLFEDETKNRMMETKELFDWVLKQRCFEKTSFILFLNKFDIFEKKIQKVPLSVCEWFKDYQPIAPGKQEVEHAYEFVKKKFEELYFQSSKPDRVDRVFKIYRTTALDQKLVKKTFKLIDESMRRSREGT

[4] = target: T4, OsRGA1-N195T (Oryza sativa, UniProt Q0DJ33 1-380, N195T)
T4 construct: Oryza sativa heterotrimeric G protein alpha subunit OsRGA1 with N195T (switch I); printed as N191T in two paragraphs; also called OsRGA1-N191T; 195T mutant rice Gα subunit
T4 sequence (looked up): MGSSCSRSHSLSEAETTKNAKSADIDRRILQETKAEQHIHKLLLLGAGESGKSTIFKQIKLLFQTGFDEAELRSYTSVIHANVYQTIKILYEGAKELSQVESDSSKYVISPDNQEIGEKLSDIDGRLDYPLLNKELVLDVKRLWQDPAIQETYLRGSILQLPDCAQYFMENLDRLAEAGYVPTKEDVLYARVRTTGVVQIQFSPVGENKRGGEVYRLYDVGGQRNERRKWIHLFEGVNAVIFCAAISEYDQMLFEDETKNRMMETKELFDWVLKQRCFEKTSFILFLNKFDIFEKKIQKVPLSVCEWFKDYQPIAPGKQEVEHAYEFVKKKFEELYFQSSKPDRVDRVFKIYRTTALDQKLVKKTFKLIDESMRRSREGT

B1: Recombinant His-AtRGS1 (284–459 aa) (domain or fragment, Arabidopsis thaliana, UniProt Q8H1F2 284-459, looked up)
chain: KEEFRPVDPNEPLDKLLLNKRFRHSFMEFADSCYAGETLHFFEEVYEHGKIPEDDSIRRIYMARHIMEKFIVAGAEMELNLSHKTRQEILTTQDLTHTDLFKNALNEVMQLIKMNLVRDYWSSIYFIKFKEEESCHEAMHKEGYSFSSPRLSSVQGSDDPFYQEHMSKSSRCSSPG
notes: Arabidopsis thaliana Regulator of G protein Signaling 1 (AtRGS1), residues 284-459
B1 was tested, and the Kd [1] was 17.4 nM, the koff [1] was 0.00616 s⁻¹ and the kon [1] was 353000 M⁻¹ s⁻¹. It also gave a Kd [2] of 115 nM, a koff [2] of 0.0134 s⁻¹ and a kon [2] of 117000 M⁻¹ s⁻¹. It also gave a Kd [3] of 56.7 nM, a koff [3] of 0.0217 s⁻¹ and a kon [3] of 383000 M⁻¹ s⁻¹. The Kd [4] was 4.83 nM, the koff [4] was 0.00584 s⁻¹ and the kon [4] was 1.21e+06 M⁻¹ s⁻¹.
